Measurements reported in patent US20190135908A1 (Novartis, published 2019).

T1: GDF15 mutant L294R (knuckle region), albumin fusion (human, UniProt Q99988 195-308)
T1 construct: not shown: albumin fusion partner
T1 chain: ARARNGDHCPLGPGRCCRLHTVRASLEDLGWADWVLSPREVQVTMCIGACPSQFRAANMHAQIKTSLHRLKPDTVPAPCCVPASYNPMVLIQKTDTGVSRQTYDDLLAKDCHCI

T2: GDF15 mutant I285R (knuckle region), albumin fusion (human, UniProt Q99988 195-308)
T2 construct: not shown: albumin fusion partner
T2 chain: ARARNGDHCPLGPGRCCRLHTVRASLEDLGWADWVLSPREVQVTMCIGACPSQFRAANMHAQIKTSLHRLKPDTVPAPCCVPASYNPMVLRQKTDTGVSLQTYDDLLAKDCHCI

T3: GDF15 mutant Q247R (wrist region), albumin fusion (human, UniProt Q99988 195-308)
T3 construct: not shown: albumin fusion partner
T3 chain: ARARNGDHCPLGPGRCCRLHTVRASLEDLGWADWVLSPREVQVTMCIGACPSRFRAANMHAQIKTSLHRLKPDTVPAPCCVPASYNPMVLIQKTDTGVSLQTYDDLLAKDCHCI

T4: GDF15 mutant W228R (wrist region), albumin fusion (human, UniProt Q99988 195-308)
T4 construct: not shown: albumin fusion partner
T4 chain: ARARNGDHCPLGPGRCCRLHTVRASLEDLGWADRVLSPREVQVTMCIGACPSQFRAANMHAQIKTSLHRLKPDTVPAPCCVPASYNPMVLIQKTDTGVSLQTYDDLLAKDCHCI

T5: GDF15 mutant M253R (wrist region), albumin fusion (human, UniProt Q99988 195-308)
T5 construct: not shown: albumin fusion partner
T5 chain: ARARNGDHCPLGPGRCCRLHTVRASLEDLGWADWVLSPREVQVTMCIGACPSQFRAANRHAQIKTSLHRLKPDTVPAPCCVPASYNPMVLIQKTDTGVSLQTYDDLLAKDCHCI

T6: GDF15 mutant D289R (finger tip region), albumin fusion (human, UniProt Q99988 195-308)
T6 construct: not shown: albumin fusion partner
T6 chain: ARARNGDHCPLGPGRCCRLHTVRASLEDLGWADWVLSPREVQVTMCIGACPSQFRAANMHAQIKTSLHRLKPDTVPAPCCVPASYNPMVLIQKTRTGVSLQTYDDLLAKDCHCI

T7: GDF15 mutant S278R (back-of-hand), albumin fusion (human, UniProt Q99988 195-308)
T7 construct: not shown: albumin fusion partner
T7 chain: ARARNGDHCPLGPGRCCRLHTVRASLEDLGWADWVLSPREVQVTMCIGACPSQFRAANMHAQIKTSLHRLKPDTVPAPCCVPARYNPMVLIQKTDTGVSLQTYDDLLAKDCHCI

T8: Human His-GDF15: HIS-tagged human GDF15 (human, UniProt Q99988 195-308)
T8 construct: not shown: His tag
T8 sequence: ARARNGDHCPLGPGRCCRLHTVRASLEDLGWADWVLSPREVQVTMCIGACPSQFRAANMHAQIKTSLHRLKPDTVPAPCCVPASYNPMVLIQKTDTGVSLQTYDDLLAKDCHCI

T9: Cyno His-GDF15: HIS-tagged cyno GDF15 (cynomolgus, UniProt G7PWZ3 197-308, limits assumed)
T9 construct: not shown: His tag
T9 sequence (looked up): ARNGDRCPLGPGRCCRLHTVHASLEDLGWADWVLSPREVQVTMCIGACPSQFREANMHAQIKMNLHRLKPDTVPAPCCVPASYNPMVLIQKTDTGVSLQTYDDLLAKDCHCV

T10: Mouse His-GDF15: HIS-tagged mouse GDF15 (mouse, UniProt Q9Z0J7 189-303)
T10 construct: not shown: His tag
T10 sequence (looked up): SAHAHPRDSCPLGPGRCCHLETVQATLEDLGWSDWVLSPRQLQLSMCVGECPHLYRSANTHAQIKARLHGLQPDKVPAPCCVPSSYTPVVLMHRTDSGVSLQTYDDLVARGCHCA

T11: Rat GDF15 HIS: HIS-tagged rat GDF15 (rat, UniProt Q9Z0J6 189-303, limits assumed)
T11 construct: also called Rat His-GDF15; not shown: His tag
T11 sequence (looked up): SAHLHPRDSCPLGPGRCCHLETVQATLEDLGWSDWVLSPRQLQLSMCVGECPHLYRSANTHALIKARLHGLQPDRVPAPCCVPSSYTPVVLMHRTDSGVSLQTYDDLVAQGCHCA

T12: Human GDF15 native: naturally produced human GDF15 purchased from Peprotech (human, UniProt Q99988 195-308)
T12 construct: Bought protein
T12 sequence: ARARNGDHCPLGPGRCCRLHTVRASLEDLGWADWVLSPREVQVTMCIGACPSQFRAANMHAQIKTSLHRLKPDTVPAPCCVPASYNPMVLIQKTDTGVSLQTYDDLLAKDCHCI

T13: GDF15 mutant S231R (knuckle region), albumin fusion (human, UniProt Q99988 195-308)
T13 construct: not shown: albumin fusion partner
T13 chain: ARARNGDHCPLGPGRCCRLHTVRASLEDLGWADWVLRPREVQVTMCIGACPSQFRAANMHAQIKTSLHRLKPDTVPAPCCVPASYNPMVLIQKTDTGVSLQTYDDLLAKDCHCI

T14: human GDF15 (target of the SET measurements; form not stated) (human, UniProt Q99988 195-308, limits assumed)
T14 sequence: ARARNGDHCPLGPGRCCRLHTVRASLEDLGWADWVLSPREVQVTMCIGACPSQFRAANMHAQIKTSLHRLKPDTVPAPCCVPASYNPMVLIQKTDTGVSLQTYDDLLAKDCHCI


Legend:
[1] = target: T1, GDF15 mutant L294R (knuckle region), …; assay: direct ELISA on coated albumin-fusion GDF15 mutant
Procedure: (§1) Antibody epitope was determined by a direct ELISA method with GDF15 mutants. Albumin fusion GDF15 mutants were coated in wells of a 96-well EIA plate. After blocking, serially diluted anti-hGDF15 human antibodies were added to the GDF15-coated wells, followed by incubation at an ambient temperature for a few hours. Antibody binding was detected using an anti-human IgG antibody conjugated with horseradish peroxidase (HRP) and HRP substrate.

[2] = target: T2, GDF15 mutant I285R (knuckle region), …; assay: direct ELISA on coated albumin-fusion GDF15 mutant
Procedure: as §1

[3] = target: T3, GDF15 mutant Q247R (wrist region), …; assay: direct ELISA on coated albumin-fusion GDF15 variant
Procedure: as §1

[4] = target: T4, GDF15 mutant W228R (wrist region), …; assay: as above
Procedure: as §1

[5] = target: T5, GDF15 mutant M253R (wrist region), …; assay: as above
Procedure: as §1

[6] = target: T6, GDF15 mutant D289R (finger tip region), …; assay: as above
Procedure: as §1

[7] = target: T7, GDF15 mutant S278R (back-of-hand), …; assay: as above
Procedure: as §1

[8] = target: T8, Human His-GDF15: HIS-tagged human GDF15; assay: Biacore SPR, IgG captured via anti-human Fc, GDF15 in flow
Procedure: (§2) Biacore assay is based on surface plasmon resonance (SPR) and were used to determine the binding affinity of antibodies to GDF15.
(§3) Anti-human Fc capture antibody was immobilized at 0.5 μg/ml on CMS chip in all four flow cells to achieve 8000 to 12,000 resonance units (RU) on the surface. Anti-hGDF15 antibodies were captured at flow rate […], at 0.25 to 0.5 μg/ml on the chip to get about 30 RU in flow cells 2, 3 and 4. GDF15 ligand was flowed at […] over captured antibodies and reference flow cell 1 for 600 and 1200 seconds contact time. Eight doses serially diluted 1 to 2, ranging from 20 to 0.156 nM, were tested. All cycles were repeated twice, regenerated between cycles with 3M MgCl₂ at flow […], 20 seconds contact time. Data were normalized by subtracting reference flow cell results. Data were fit with 1:1 Kinetics model with RI (bulk refractive index) set constant at 0.

[9] = target: T9, Cyno His-GDF15: HIS-tagged cyno GDF15; assay: as above
Procedure: as §2, §3

[10] = target: T10, Mouse His-GDF15: HIS-tagged mouse GDF15; assay: as above
Procedure: as §2, §3

[11] = target: T11, Rat GDF15 HIS: HIS-tagged rat GDF15; assay: as above
Procedure: as §2, §3

[12] = target: T12, Human GDF15 native: naturally produced …; assay: as above
Procedure: as §2, §3

[13] = target: T12, Human GDF15 native: naturally produced …; assay: Biacore SPR (rounded from Table 2, human GDF15 native); Biacore, not SET
Procedure: as §3

[14] = target: T13, GDF15 mutant S231R (knuckle region), …; assay: direct ELISA: albumin fusion GDF15 mutant coated on the plate, serially diluted antibody, anti-human IgG-HRP detection
Procedure: as §1

[15] = target: T12, Human GDF15 native: naturally produced …; assay: Biacore SPR (rounded from Table 2, human GDF15 native)
Procedure: as §3

[16] = target: T14, human GDF15 (target of the SET …); assay: solution equilibrium titration (SET); SET, not Biacore

binding result [1] | binding result [2] | binding result [3] | binding result [4] | binding result [5] | binding result [6] | binding result [7] | Kd [8] [pM] | koff [8] [s⁻¹] | kon [8] [M⁻¹ s⁻¹] | Kd [9] [pM] | koff [9] [s⁻¹] | kon [9] [M⁻¹ s⁻¹] | Kd [10] [pM] | koff [10] [s⁻¹] | kon [10] [M⁻¹ s⁻¹] | Kd [11] [pM] | koff [11] [s⁻¹] | kon [11] [M⁻¹ s⁻¹] | Kd [12] [pM] | Binder | other results
no binding | no binding | binds | binds | binds | binds | binds | 2.62 | 0.000247 | 9.42e+07 | 13.4 | 0.000278 | 2.07e+07 | 56.8 | 0.000613 | 1.08e+07 | 23.2 | 0.000451 | 1.95e+07 | 11.3 | ABGDF15-A (antibody, human IgG1, kappa, V domains shown, captured through anti-human Fc in the Biacore assay) VH: EVQLVQSGAEVKKPGESLKISCKGSGYSFTDYWISWVRQMPGKGLEWMGIIDPSGSYTIYSPSFQGQVTISADKSISTAYLQWSSLKASDTAMYYCARVSYYGGYFDIWGQGTLVTVSS VL: DIQMTQSPSSLSASVGDRVTITCRASQSISNNLNWYQQKPGKAPKLLIYAASNLQSGVPSRFSGSGSGTDFTLTISSLQPEDFATYYCFQLDHSPFTFGQGTKVEIKR | koff [12]: 0.000374 s⁻¹; kon [12]: 3.3e+07 M⁻¹ s⁻¹; Kd [13]: 11 pM; binding result [14]: binds
no binding | no binding | binds | binds | binds | binds | binds | 136 | 0.000533 | 3.9e+06 | 120 | 0.000694 | 5.79e+06 | 154 | 0.000343 | 2.23e+06 | 138 | 0.000365 | 2.63e+06 | 88.2 | ABGDF15-G (antibody, human IgG1, kappa, V domains shown, captured through anti-human Fc in the Biacore assay) VH: QVQLVQSGAEVKKPGSSVKVSCKASGGTFSSHYINWVRQAPGQGLEWMGGIIPAFGGANYAQKFQGRVTITADESTSTAYMELSSLRSEDTAVYYCARFGSVYVSRYSSYYHMDVWGQGTLVTVSS VL: DIQMTQSPSSLSASVGDRVTITCRASQTIYRSLAWYQQKPGKAPKLLIYGASILQSGVPSRFSGSGSGTDFTLTISSLQPEDFATYYCLQRYTSPFTFGQGTKVEIKR | Kd [15]: 88 pM; Kd [16]: 20 pM; koff [12]: 0.000512 s⁻¹; kon [12]: 5.8e+06 M⁻¹ s⁻¹; binding result [14]: binds
